Data taken from PMC3863716.
Like-named read-outs stand apart in the source and are kept apart here.

B1: human NMT2 (Homo sapiens) (protein)
chain: AKHRYQFWDTQPVPKLDEVITSHGAIEPDKDNVRQEPYSLPQGFMWDTLDLSDAEVLKELYTLLNENYVEDDDNMFRFDYSPEFLLWALRPPGWLLQWHCGVRVSSNKKLVGFISAIPANIRIYDSVKKMVEINFLCVHKKLRSKRVAPVLIREITRRVNLEGIFQAVYTAGVVLPKPIATCRYWHRSLNPRKLVEVKFSHLSRNMTLQRTMKLYRLPDVTKTSGLRPMEPKDIKSVRELINTYLKQFHLAPVMDEEEVAHWFLPREHIIDTFVVESPNGKLTDFLSFYTLPSTVMHHPAHKSLKAAYSFYNIHTETPLLDLMSDALILAKSKGFDVFNALDLMENKTFLEKLKFGIGDGNLQYYLYNWRCPGTDSEKVGLVLQ

Assays:
[1] = tested on: CCCCCCCCCCCCCC(=O)SCCNC(=O)CCNC(=O)[C@H](O)C(C)(C)COP(=O)(O)OP(=O)(O)OC[C@H]1O[C@@H](n2cnc3c(N)ncnc32)[C@H](O)[C@@H]1OP(=O)(O)O; assay: purified protein
purified protein = substrate: CCCCCCCCCCCCCC(=O)SCCNC(=O)CCNC(=O)[C@H](O)C(C)(C)COP(=O)(O)OP(=O)(O)OC[C@H]1O[C@@H](n2cnc3c(N)ncnc32)[C@H](O)[C@@H]1OP(=O)(O)O; assay: purified protein; remark: listed apart in the source

Molecule | Km [1] [µM] | Km (purified protein) [µM]
human NMT1 (Homo sapiens) | 8.24 ± 0.62 | –
B1 | – | 7.24 ± 0.79
